Data reported in patent publication US6670183B2, “88kDa tumorigenic growth factor and antagonists” (A & G Pharmaceutical, Inc., priority 1997, dated 2003).
Read-outs that look alike come from different tables or passages of the source.

Experiments:
[1] = tested on: mouse mammary epithelial cell line C57MG; experiment: DNA synthesis (^3H-thymidine incorporation) in serum-starved C57MG cells; type: cell-based
Protocol: We investigated the effect of GP88 on the proliferation of a variety of cell lines including fibroblasts and mammary epithelial cells.
The ability of GP88 purified from PC cells (upper panel) and recombinant GP88, rGP88 (lower panel), to stimulate DNA synthesis in C57MG cells was measured by incorporation of ^3H-thymidine in serum-starved quiescent cells.

[2] = tested on: GP88 cell surface receptors on CCL64 cells; experiment: ^125I-GP88 binding to CCL64 cells, Scatchard analysis; parameters: species or system mink; settings: 2 hours at 25° C.
Protocol: Recombinant GP88 (rGP88) was iodinated by the chloramine T method at 4° C. Other known methods can also be applied. Briefly, 1 μg of GP88 was incubated for 2 min with ^125I Na (100 μCi) that had been preincubated for 90 seconds with 2 μg chloramine T. The reaction was quenched with the addition of 100 μl saturated tyrosine, 10 μl of a 1% solution of bovine serum albumin (BSA) and 2 μg of sodium metabisulfite. After addition of 100 μl PBS, the iodinated protein was separated from free Na^125I by gel filtration on a Sephadex-G50 column that had been preincubated with PBS containing 1% bovine serum albumin and then extensively washed with PBS to reduce non-specific binding. The labeled proteins were eluted with PBS and fractions monitored for radioactivity. Amount of incorporated radioactivity was estimated by TCA precipitation. Specific activity of ^125I-GP88 was typically 30-50 μCi/μg. […]
The example provided here describes binding assay with the mink lung epithelial cell line CCL64 but has also been applied to several cell lines including the 1246, PC cell lines and the mammary epithelial cell line C57MG. […] The cells were harvested by centrifugation, washed with culture medium and counted with a hemocytometer. […] Cell pellets were counted with a gamma counter. […]

B1: rGP88: recombinant mouse GP88 expressed in baculovirus infected Sf9 insect cells; iodinated as binding ligand (protein)
chain: TQCPDGQFCPVACCLDQGGANYSCCNPLLDTWPRITSHHLDGSCQTHGHCPAGYSCLLTVSGTSSCCPFSKGVSCGDGYHCCPQGFHCSADGKSCFQMSDNPLGAVQCPGSQFECPDSATCCIMVDGSWGCCPMPQASCCEDRVHCCPHGASCDLVHTRCVSPTGTHTLLKKFPAQKTNSAVSLPFSVVCPDAKTQCPDDSTCCELPTGKYGCCPMPNAICCSDHLHCCPQDTVCDLIQSKCLSKNYTTDLLTKLPGYPVKEVKCDMEVSCPEGYTCCRLNTGAWGCCPFAKAVCCDDHIHCCPAGFQCHTEKGTCEMGILQVGWMKKVIAPLRLPDPQILKSDTPCDDFTRCPTNNTCCKLNSGDWGCCPIPEAVCCSDNQHCCPQGFTCLAQGYCQKGDTMVAGLEKIPARQTTPLQIGDIGCDQHTSCPVGQTCCPSLKGSWACCQLPHAVCCEDRQHCCPAGYTCNVKARTCEKDVDFIQPPVLLTLGPKVGNVECGEGHFCHDNQTCCKDSAGVWACCPYLKGVCCRDGRHCCPGGFHCSARGTKCLRKKIPRWDMFLRDPVPRPLL
For B1, the “increase in DNA synthesis” value ([1]; 150 ng/ml (2 nM)) was 5 fold, the “biological activity compared with PC cell derived GP88” value ([1]; FIG. 6) was “identical to that of GP88 purified from PC cells” and the Kd ([2]; read-out: Kd, high affinity class of receptors) was 0.043 nM. For the same molecule, the Kd ([2]; read-out: Kd, low affinity class of receptors) was 3.9 nM.
